What was measured:
FnCas12a ΔBH [1] = target: T1, FnCas12a ΔBH (Francisella novicida, UniProt A0Q7Q2 1-1300, del953-969); test: EMSA
FnCas12a ΔBH/Δh1 [2] = target: T2, FnCas12a ΔBH/Δh1 (Francisella novicida, UniProt A0Q7Q2 1-1300, del953-1000); test: EMSA
FnCas12a Δh1 [3] = target: T3, FnCas12a Δh1 (Francisella novicida, UniProt A0Q7Q2 1-1300, del972-1000); test: EMSA
FnCas12a ΔΔBH = FnCas12a ΔΔBH (Francisella novicida, UniProt A0Q7Q2 1-1300, del953-971); test: EMSA
FnCas12a ΔBH [4] = target: T1, FnCas12a ΔBH; test: EMSA; remark: listed apart in the source
FnCas12a ΔBH/Δh1 [5] = target: T2, FnCas12a ΔBH/Δh1; test: EMSA; remark: listed apart in the source
FnCas12a Δh1 [6] = target: T3, FnCas12a Δh1; test: EMSA; remark: listed apart in the source
FnCas12a WT = FnCas12a WT (Francisella novicida, UniProt A0Q7Q2 1-1300); test: mass photometry

Binder: AAUUUCUACUGUUGUAGAUGUGAUAAGUGGAAUGCCAUGUGGG (structured_RNA) [crRNA-Cy5 (43 nt)]
- binding signal (FnCas12a ΔBH [1]): ~50 % of WT
- binding signal (FnCas12a ΔBH/Δh1 [2]): 22.9 % of WT
- binding signal (FnCas12a Δh1 [3]): 10.7 % of WT

B1: crRNA + 58 bp target DNA MM 0 (labeled) (mixed)
RNA: AAUUUCUACUGUUGUAGAUGUGAUAAGUGGAAUGCCAUGUGGG
DNA 1: ACTCAATTTTGACAGCCCACATGGCATTCCACTTATCACTAAAGGCATCCTTCCACGT
DNA 2: ACGTGGAAGGATGCCTTTAGTGATAAGTGGAATGCCATGTGGGCTGTCAAAATTGAGT
- binding result (FnCas12a ΔΔBH): no binding
- binding result (FnCas12a ΔBH [4]): binds
- binding result (FnCas12a ΔBH/Δh1 [5]): no binding
- binding result (FnCas12a Δh1 [6]): no binding

Binder: AAUUUCUACUGUUGUAGAUGUGAUAAGUGGAAUGCCAUGUGGG (structured_RNA) [crRNA (43 nt)]
- binding result (FnCas12a WT): binds

— article PMC9508855
